According to US20180273635A1 (Zymeworks, published 2018):

Legend:
Recombinant human HER2 [1] = molecular target: T1, Recombinant human HER2 (human, UniProt P04626 23-652); assay: calculated from the SPR Ka ratio to WT v10013;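 further: SPR at 25 °C with constructs captured on an anti-human Fc chip and HER2 extracellular domain as analyte, kinetics fitted to a 1:1 Langmuir model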
T1 construct: extracellular domain; Analyte of the SPR assays; also called HER2 ECD; ECD2 of HER2

Recombinant human HER2 [2] = molecular target: T1, Recombinant human HER2; assay: SPR, Biacore T200, 25 C; variant captured on anti-human Fc, HER2 flowed;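 further: HER2 extracellular domain analyte run as duplicate dilutions over amine-coupled anti-Fc on a CM5 chip, rates from global sensorgram fitting with a 1:1 Langmuir model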
Procedure: (§1) The affinity towards HER2 ECD of the samples was measured by SPR on a Biacore T200 as follows. Between 2000 and 4000 RU of anti-human Fc injected at concentration between 5 and 10 μg/ml was immobilized on a CM5 chip using standard amine coupling. Antigen-binding constructs were captured on the anti-human Fc (injected at concentration at 0.51 microg/mL in PBST, 1 min at 10 microl/min) at response levels ranging from 120-270 RU. […] HER2 dilutions were analyzed in duplicates. Sensograms were fit globally to a 1: 1 Langmuir binding model, using the software provided with the Biacore T200. All experiments were conducted at 25° C.

Recombinant human HER2 [3] = molecular target: T1, Recombinant human HER2; assay: SPR, 25 C; Ka ratio to WT v10013;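 further: constructs captured via anti-human Fc on CM5 chip, HER2 ECD as analyte in duplicate dilutions, sensorgrams globally fit to 1:1 Langmuir model on Biacore T200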
Procedure: as §1

Binder	ΔΔG (Recombinant human HER2 [1]) [kcal/mol]	Kd (Recombinant human HER2 [2]) [nM]	koff (Recombinant human HER2 [2]) [s⁻¹]	kon (Recombinant human HER2 [2]) [M⁻¹ s⁻¹]	Ka, mut/Ka, WT (Recombinant human HER2 [3]) [fold]
Variant 14034 (antibody, human IgG1, kappa, OA (one-armed) format; clones 3057, 8781, 4372; also called v14034) heavy: EVQLVESGGGLVQPGGSLRLSCAASGFTFTDYTMDWVRQAPGKGLEWVADVNPNSGGSIYNQRFKGRFTLSVDRSKNTLYLQMNSLRAEDTAVYYCARNLGPSFYFDYWGQGTLVTVSSASTKGPSVFPLAPSSKSTSGGTAALGCLVKDYFPEPVTVSWNSGALTSGVHTFPAVLQSSGLYSLSSVVTVPSSSLGTQTYICNVNHKPSNTKVDKKVEPKSCDKTHTCPPCPAPELLGGPSVFLFPPKPKDTLMISRTPEVTCVVVDVSHEDPEVKFNWYVDGVEVHNAKTKPREEQYNSTYRVVSVLTVLHQDWLNGKEYKCKVSNKALPAPIEKTISKAKGQPREPQVYVYPPSRDELTKNQVSLTCLVKGFYPSDIAVEWESNGQPENNYKTTPPVLDSDGSFALVSKLTVDKSRWQQGNVFSCSVMHEALHNHYTQKSLSLSPG light: not shown not shown	-1.4	1.5	8.5e-05	59000	12
Variant 14038 (antibody, human IgG1, kappa, OA (one-armed) format; clones 8782, 1811, 4372; also called v14038) heavy: EVQLVESGGGLVQPGGSLRLSCAASGFTFQDYTMDWVRQAPGKGLEWVADVNPNSGGSIYNQRFKGRFTLSVDRSENTLYLQMNSLRAEDTAVYYCARNLGPSFYFDYWGQGTLVTVSSASTKGPSVFPLAPSSKSTSGGTAALGCLVKDYFPEPVTVSWNSGALTSGVHTFPAVLQSSGLYSLSSVVTVPSSSLGTQTYICNVNHKPSNTKVDKKVEPKSCDKTHTCPPCPAPELLGGPSVFLFPPKPKDTLMISRTPEVTCVVVDVSHEDPEVKFNWYVDGVEVHNAKTKPREEQYNSTYRVVSVLTVLHQDWLNGKEYKCKVSNKALPAPIEKTISKAKGQPREPQVYVYPPSRDELTKNQVSLTCLVKGFYPSDIAVEWESNGQPENNYKTTPPVLDSDGSFALVSKLTVDKSRWQQGNVFSCSVMHEALHNHYTQKSLSLSPG light: not shown not shown	-1.5	1.4	6.2e-05	43000	12
Variant 14040 (antibody, human IgG1, kappa, OA (one-armed) format; clones 8783, 1811, 4372; also called v14040) heavy: EVQLVESGGGLVQPGGSLRLSCAASGFTFTDYTMDWVRQAPGKGLEWVADVNPNSGGSIYNQRFKGRFTLSVDRSENTLYLQMNSLRAEDTAVYYCARNLGPWFYFDYWGQGTLVTVSSASTKGPSVFPLAPSSKSTSGGTAALGCLVKDYFPEPVTVSWNSGALTSGVHTFPAVLQSSGLYSLSSVVTVPSSSLGTQTYICNVNHKPSNTKVDKKVEPKSCDKTHTCPPCPAPELLGGPSVFLFPPKPKDTLMISRTPEVTCVVVDVSHEDPEVKFNWYVDGVEVHNAKTKPREEQYNSTYRVVSVLTVLHQDWLNGKEYKCKVSNKALPAPIEKTISKAKGQPREPQVYVYPPSRDELTKNQVSLTCLVKGFYPSDIAVEWESNGQPENNYKTTPPVLDSDGSFALVSKLTVDKSRWQQGNVFSCSVMHEALHNHYTQKSLSLSPG light: not shown not shown	-1.6	1.2	7.9e-05	64000	15
Variant 14035 (antibody, human IgG1, kappa, OA (one-armed) format; clones 7815, 7917, 4372; also called v14035) heavy: EVQLVESGGGLVQPGGSLRLSCAASGFTFQDYTMDWVRQAPGKGLEWVADVNPNSGGSIYNQRFKGRFTLSVDRSKNTLYLQMNSLRAEDTAVYYCARNLGPSFYFDYWGQGTLVTVSSASTKGPSVFPLAPSSKSTSGGTAALGCLVKDYFPEPVTVSWNSGALTSGVHTFPAVLQSSGLYSLSSVVTVPSSSLGTQTYICNVNHKPSNTKVDKKVEPKSCDKTHTCPPCPAPELLGGPSVFLFPPKPKDTLMISRTPEVTCVVVDVSHEDPEVKFNWYVDGVEVHNAKTKPREEQYNSTYRVVSVLTVLHQDWLNGKEYKCKVSNKALPAPIEKTISKAKGQPREPQVYVYPPSRDELTKNQVSLTCLVKGFYPSDIAVEWESNGQPENNYKTTPPVLDSDGSFALVSKLTVDKSRWQQGNVFSCSVMHEALHNHYTQKSLSLSPG light: not shown not shown	-1.7	0.91	4e-05	44000	18
Variant 14039 (antibody, human IgG1, kappa, OA (one-armed) format; clones 7813, 7919, 4372; also called v14039) heavy: EVQLVESGGGLVQPGGSLRLSCAASGFTFYDYTMDWVRQAPGKGLEWVADVNPNSGGSIYNQRFKGRFTLSVDRSKNTLYLQMNSLRAEDTAVYYCARNLGPSFYFDYWGQGTLVTVSSASTKGPSVFPLAPSSKSTSGGTAALGCLVKDYFPEPVTVSWNSGALTSGVHTFPAVLQSSGLYSLSSVVTVPSSSLGTQTYICNVNHKPSNTKVDKKVEPKSCDKTHTCPPCPAPELLGGPSVFLFPPKPKDTLMISRTPEVTCVVVDVSHEDPEVKFNWYVDGVEVHNAKTKPREEQYNSTYRVVSVLTVLHQDWLNGKEYKCKVSNKALPAPIEKTISKAKGQPREPQVYVYPPSRDELTKNQVSLTCLVKGFYPSDIAVEWESNGQPENNYKTTPPVLDSDGSFALVSKLTVDKSRWQQGNVFSCSVMHEALHNHYTQKSLSLSPG light: not shown not shown	-1.7	1.1	5.5e-05	50000	18
Variant 14037 (antibody, human IgG1, kappa, OA (one-armed) format; clones 7843, 7919, 4372; also called v14037) heavy: EVQLVESGGGLVQPGGSLRLSCAASGFTFTDYTMDWVRQAPGKGLEWVADVNPNSGGSIYNQRFKGRFTLSVDRSENTLYLQMNSLRAEDTAVYYCARNLGPSFYFDYWGQGTLVTVSSASTKGPSVFPLAPSSKSTSGGTAALGCLVKDYFPEPVTVSWNSGALTSGVHTFPAVLQSSGLYSLSSVVTVPSSSLGTQTYICNVNHKPSNTKVDKKVEPKSCDKTHTCPPCPAPELLGGPSVFLFPPKPKDTLMISRTPEVTCVVVDVSHEDPEVKFNWYVDGVEVHNAKTKPREEQYNSTYRVVSVLTVLHQDWLNGKEYKCKVSNKALPAPIEKTISKAKGQPREPQVYVYPPSRDELTKNQVSLTCLVKGFYPSDIAVEWESNGQPENNYKTTPPVLDSDGSFALVSKLTVDKSRWQQGNVFSCSVMHEALHNHYTQKSLSLSPG light: not shown not shown	-1.5	1.4	8.3e-05	59000	12

The next lines start with the values.

ΔΔG (Recombinant human HER2 [1]) [kcal/mol]	Kd (Recombinant human HER2 [2]) [nM]	koff (Recombinant human HER2 [2]) [s⁻¹]	kon (Recombinant human HER2 [2]) [M⁻¹ s⁻¹]	Ka, mut/Ka, WT (Recombinant human HER2 [3]) [fold]	Binder
-3.2	~0.091	~9.1e-06	100000	~212	Variant 14046 (antibody, human IgG1, kappa, OA (one-armed) format; clones 7844, 8781, 4372; also called v14046) heavy: EVQLVESGGGLVQPGGSLRLSCAASGFTFTDYTMDWVRQAPGKGLEWVADVNPNSGGSIYNQRFKGRFTLSVDRSWNTLYLQMNSLRAEDTAVYYCARNLGPSFYFDYWGQGTLVTVSSASTKGPSVFPLAPSSKSTSGGTAALGCLVKDYFPEPVTVSWNSGALTSGVHTFPAVLQSSGLYSLSSVVTVPSSSLGTQTYICNVNHKPSNTKVDKKVEPKSCDKTHTCPPCPAPELLGGPSVFLFPPKPKDTLMISRTPEVTCVVVDVSHEDPEVKFNWYVDGVEVHNAKTKPREEQYNSTYRVVSVLTVLHQDWLNGKEYKCKVSNKALPAPIEKTISKAKGQPREPQVYVYPPSRDELTKNQVSLTCLVKGFYPSDIAVEWESNGQPENNYKTTPPVLDSDGSFALVSKLTVDKSRWQQGNVFSCSVMHEALHNHYTQKSLSLSPG light: not shown not shown
-1.6	1.2	5.9e-05	47000	15	Variant 14042 (antibody, human IgG1, kappa, OA (one-armed) format; clones 8788, 1811, 4372; also called v14042) heavy: EVQLVESGGGLVQPGGSLRLSCAASGFTFQDYTMDWVRQAPGKGLEWVADVNPNSGYSIYNQRFKGRFTLSVDRSKNTLYLQMNSLRAEDTAVYYCARNLGPSFYFDYWGQGTLVTVSSASTKGPSVFPLAPSSKSTSGGTAALGCLVKDYFPEPVTVSWNSGALTSGVHTFPAVLQSSGLYSLSSVVTVPSSSLGTQTYICNVNHKPSNTKVDKKVEPKSCDKTHTCPPCPAPELLGGPSVFLFPPKPKDTLMISRTPEVTCVVVDVSHEDPEVKFNWYVDGVEVHNAKTKPREEQYNSTYRVVSVLTVLHQDWLNGKEYKCKVSNKALPAPIEKTISKAKGQPREPQVYVYPPSRDELTKNQVSLTCLVKGFYPSDIAVEWESNGQPENNYKTTPPVLDSDGSFALVSKLTVDKSRWQQGNVFSCSVMHEALHNHYTQKSLSLSPG light: not shown not shown
-2.4	0.33	3.2e-05	96000	57	Variant 14044 (antibody, human IgG1, kappa, OA (one-armed) format; clones 8774, 7919, 4372; also called v14044) heavy: EVQLVESGGGLVQPGGSLRLSCAASGFTFTDYTMDWVRQAPGKGLEWVADVNPNSGGSIYNQRFKGRFTLSVDRSWNTLYLQMNSLRAEDTAVYYCARNLGPWFYFDYWGQGTLVTVSSASTKGPSVFPLAPSSKSTSGGTAALGCLVKDYFPEPVTVSWNSGALTSGVHTFPAVLQSSGLYSLSSVVTVPSSSLGTQTYICNVNHKPSNTKVDKKVEPKSCDKTHTCPPCPAPELLGGPSVFLFPPKPKDTLMISRTPEVTCVVVDVSHEDPEVKFNWYVDGVEVHNAKTKPREEQYNSTYRVVSVLTVLHQDWLNGKEYKCKVSNKALPAPIEKTISKAKGQPREPQVYVYPPSRDELTKNQVSLTCLVKGFYPSDIAVEWESNGQPENNYKTTPPVLDSDGSFALVSKLTVDKSRWQQGNVFSCSVMHEALHNHYTQKSLSLSPG light: not shown not shown
-3.2	~0.084	~5.9e-06	71000	~229	Variant 14045 (antibody, human IgG1, kappa, OA (one-armed) format; clones 8784, 1811, 4372; also called v14045) heavy: EVQLVESGGGLVQPGGSLRLSCAASGFTFQDYTMDWVRQAPGKGLEWVADVNPNSGGSIYNQRFKGRFTLSVDRSWNTLYLQMNSLRAEDTAVYYCARNLGPWFYFDYWGQGTLVTVSSASTKGPSVFPLAPSSKSTSGGTAALGCLVKDYFPEPVTVSWNSGALTSGVHTFPAVLQSSGLYSLSSVVTVPSSSLGTQTYICNVNHKPSNTKVDKKVEPKSCDKTHTCPPCPAPELLGGPSVFLFPPKPKDTLMISRTPEVTCVVVDVSHEDPEVKFNWYVDGVEVHNAKTKPREEQYNSTYRVVSVLTVLHQDWLNGKEYKCKVSNKALPAPIEKTISKAKGQPREPQVYVYPPSRDELTKNQVSLTCLVKGFYPSDIAVEWESNGQPENNYKTTPPVLDSDGSFALVSKLTVDKSRWQQGNVFSCSVMHEALHNHYTQKSLSLSPG light: not shown not shown
-1.7	1.1	5.8e-05	51000	17	Variant 14041 (antibody, human IgG1, kappa, OA (one-armed) format; clones 8785, 1811, 4372; also called v14041) heavy: EVQLVESGGGLVQPGGSLRLSCAASGFTFYDYTMDWVRQAPGKGLEWVADVNPNSGGSIYNQRFKGRFTLSVDRSKNTLYLQMNSLRAEDTAVYYCARNLGPWFYFDYWGQGTLVTVSSASTKGPSVFPLAPSSKSTSGGTAALGCLVKDYFPEPVTVSWNSGALTSGVHTFPAVLQSSGLYSLSSVVTVPSSSLGTQTYICNVNHKPSNTKVDKKVEPKSCDKTHTCPPCPAPELLGGPSVFLFPPKPKDTLMISRTPEVTCVVVDVSHEDPEVKFNWYVDGVEVHNAKTKPREEQYNSTYRVVSVLTVLHQDWLNGKEYKCKVSNKALPAPIEKTISKAKGQPREPQVYVYPPSRDELTKNQVSLTCLVKGFYPSDIAVEWESNGQPENNYKTTPPVLDSDGSFALVSKLTVDKSRWQQGNVFSCSVMHEALHNHYTQKSLSLSPG light: not shown not shown
